B1: Protein S100-G, residues 1 to 79; numbered along this chain, P02633 (parent)
chain: MSAKKSPEELKGIFEKYAAKEGDPNQLSKEELKLLLQTEFPSLLKGPSTLDELFEELDKNGDGEVSFEEFQVLVKKISQ

Variants of: B1
Experiment: abundance fitness (aPCA) (normalised: wild type 0, dead -1); higher = more abundant; growth selection in yeast, the domain comes from the species named
Settings: Bos taurus

Abundance fitness: each site, then its substitutions
Q37: F -0.016 | E 0.019 | T 0.021 | D 0.054 | H -0.047 | K -0.008 | M -0.104 | V -0.001 | A -0.058
F40: D -0.099 | E -0.158 | A -0.189 | C -0.059 | G -0.155
Q26: H -0.075 | Y 0.021 | E 0.012 | P -0.523 | A -0.062 | K -0.05 | W 0.037 | F -0.043 | C -0.082 | S 0.042 | N -0.048 | R 0.054 | L 0.006 | D -0.155 | G -0.031 | I 0.003 | M 0.002 | V -0.081
K33: W -0.479 | C -0.072 | E -0.032 | I -0.051 | A 0.043 | G 0.033 | N -0.016 | V -0.016 | R -0.005 | F -0.022 | T 0.059 | Y -0.121 | H -0.041
E30: H -0.026 | N 0.061 | S 0.048 | V 0.071 | M 0.022 | Q 0.04 | P 0.026 | G -0.057 | D 0.073 | C -0.018 | Y -0.042 | L -0.053 | R 0.03 | K -0.023 | F -0.006 | W -0.074 | T -0.001 | I -0.032 | A -0.016
L34: H 0.05 | C -0.045 | Y -0.015 | S -0.04 | T 0.023 | F -0.036 | E 0.054 | G 0.035 | D 0.113 | V -0.031 | A 0.066 | K 0.027 | I 0.018 | N 0.041 | R 0.05
D23: M -0.104 | W -0.254 | R -0.043 | S -0.036 | N -0.013 | K -0.157 | Q -0.046 | A -0.009 | L -0.034 | V -0.065 | Y -0.081 | T 0.005 | G -0.091 | H -0.074 | P -0.139 | F -0.079 | E -0.053 | C -0.064
G22: K -0.037 | V -0.29 | S -0.114 | W -0.547 | F -0.431 | L -0.319 | H -0.103 | I -0.291 | R -0.013 | M -0.19 | E -0.17 | P -0.19 | T -0.22 | Y -0.204 | N -0.147 | C -0.264 | Q -0.231 | D -0.167
P24: W -0.219 | V -0.009 | R -0.007 | I 0.024 | G -0.031 | C 0.029 | Y -0.075 | D -0.125 | S 0.06 | M -0.066 | Q 0.019 | L -0.113 | K 0.046 | H -0.031 | A -0.093 | E -0.061 | F -0.197
N25: W -0.303 | A 0.014 | Q -0.079 | S -0.027 | D -0.052 | V -0.066 | I 0.024 | K -0.059 | Y -0.067 | G -0.021 | C -0.014 | E -0.012 | T -0.006 | M -0.083 | L 0.081 | H 0.02 | P -0.077 | F 0.027 | R -0.069
L36: E -1.37 | D -2.17 | H -1.08 | A -0.1 | Q -0.789 | S -0.499 | K -1.98 | T -0.203 | R -1.92 | I -0.013 | V -0.01 | G -0.589 | W -0.076 | Y -0.209 | C -0.099 | F -0.008

Reference: the Human Domainome abundance scans (Beltran et al. 2025)
